# Source: patent publication US20080299072A1
# B1: Mature wildtype (wt) human RANTES, P13501 24-91 (ligand)
# chain: SPYSSDTTPCCFAYIARPLPRAHIKEYFYTSGKCSNPAVVFVTRKNRQVCANPEKKWVREYINSLEMS
# B2: PEG-5 kDa-RANTES, P13501 24-91 (ligand)
# chain: {mPEG‑ButyrALD 5 kDa}-SPYSSDTTPCCFAYIARPLPRAHIKEYFYTSGKCSNPAVVFVTRKNRQVCANPEKKWVREYINSLEMS
# B3: PEG-2 kDa-RANTES, P13501 24-91 (ligand)
# chain: {mPEG‑ButyrALD 2 kDa}-SPYSSDTTPCCFAYIARPLPRAHIKEYFYTSGKCSNPAVVFVTRKNRQVCANPEKKWVREYINSLEMS
# Target: CCR5, P51681
# Sequence (P51681 whole entry): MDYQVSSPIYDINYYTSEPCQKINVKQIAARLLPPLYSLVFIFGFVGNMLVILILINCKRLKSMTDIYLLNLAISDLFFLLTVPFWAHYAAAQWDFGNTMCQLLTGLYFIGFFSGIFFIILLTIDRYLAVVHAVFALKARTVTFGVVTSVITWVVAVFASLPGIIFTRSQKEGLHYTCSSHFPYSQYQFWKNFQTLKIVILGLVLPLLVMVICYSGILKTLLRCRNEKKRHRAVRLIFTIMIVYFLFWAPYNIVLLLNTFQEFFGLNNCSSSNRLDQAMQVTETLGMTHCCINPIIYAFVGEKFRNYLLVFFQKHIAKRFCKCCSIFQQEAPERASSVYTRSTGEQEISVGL
# Test: competition SPA, displacement of 125I-MIP-1α from CCR5 CHO membranes (FIG. 2)
# Settings: remark: other sources report otherwise
row,IC50,Binder
1,1.3 nM,B1
2,2.2 nM,B2
3,3.1 nM,B3

# Target: CCR5, P51681
# Test: competition SPA, displacement of 125I-MIP-1α from CCR5 CHO membranes
# Settings: remark: other sources report otherwise
row,IC50,Binder
1,1.6 nM,B1
2,2.8 nM,B2
3,10.6 nM,B3
